The experiment addresses Apo2L/TRAIL-R1/DR4 (human (endogenous in MCF-7)) (UniProt O00220).
Sequence of UniProt O00220 (O00220 24-468): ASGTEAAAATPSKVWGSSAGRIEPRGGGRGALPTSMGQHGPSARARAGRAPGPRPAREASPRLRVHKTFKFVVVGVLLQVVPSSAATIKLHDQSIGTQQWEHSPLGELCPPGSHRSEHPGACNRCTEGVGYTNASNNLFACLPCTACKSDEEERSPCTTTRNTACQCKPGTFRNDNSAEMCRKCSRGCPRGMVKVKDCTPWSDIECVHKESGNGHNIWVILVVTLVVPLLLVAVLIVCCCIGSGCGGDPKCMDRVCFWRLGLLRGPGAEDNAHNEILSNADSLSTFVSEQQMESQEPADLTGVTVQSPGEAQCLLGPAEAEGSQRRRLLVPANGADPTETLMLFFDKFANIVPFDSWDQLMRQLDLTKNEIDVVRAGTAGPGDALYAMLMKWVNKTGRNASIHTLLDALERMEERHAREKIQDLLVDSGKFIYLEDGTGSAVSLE

“Human recombinant Apo2L/TRAIL (from UniProt P50591 1-281) (ligand)”: the cellular apoptosis (viability by crystal violet, OD570) of MCF-7 PTHrP overexpressing cells pre-incubated with antagonistic anti-TRAIL-R1 antibody (10 µg/ml), then treated with 100 ng/ml Apo2L/TRAIL worked out at 50%.

The record behind these values is PMC3688876.
